Measurements: patent US20080039532A1, “Compounds For Specific Viral Target” (priority 2004, published 2008)
Values joined by “and” are separate entries in the source; they are usually repeats but may differ in a detail not shown here. Equal entries are not always repeated.

Molecular target: N-heptad repeat of HIV-1's gp41 (HIV-1 strain IIIB) (HIV-1 strain IIIB), P04578
Assay: cell-based or functional assay

N-heptad repeat of HIV-1's gp41 (HIV-1 strain IIIB) (HIV-1 strain IIIB), P04578, sequence (P04578 540-590 limits assumed): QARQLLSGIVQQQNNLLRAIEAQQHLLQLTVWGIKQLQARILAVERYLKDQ

Binder | RT Results (cpm) (Day 7), HIV-1 IIIB in CBMC, drug at 0 nM (no-drug baseline) | RT Results (cpm) (Day 7), HIV-1 IIIB in CBMC, drug at 125 nM | RT Results (cpm) (Day 7), HIV-1 IIIB in CBMC, drug at 600 nM | RT Results (cpm) (Day 7), HIV-1 IIIB in CBMC, drug at 3000 nM
WMEWDREINNYTSLIHSLIEESQNQQERNEQELL (modifications not checked) [CJC-1646 (SEQ ID NO:93), native (unreactive) C34] | 49000 cpm and 46300 cpm and 47400 cpm | 5850 cpm and 5040 cpm and 5220 cpm | 4920 cpm and 5850 cpm and 5090 cpm | 5810 cpm and 6960 cpm and 5970 cpm
WMEWKREINNYTSLIHSLIEESQNQQERNEQELL (modifications not checked) [CJC-1655 (SEQ ID NO:32), C34 with linker-R1-R2-M inserted at position Asp5] | 71900 cpm and 54100 cpm and 51000 cpm | 6320 cpm and 6930 cpm and 5910 cpm | 6480 cpm and 11900 cpm and 6030 cpm | 7970 cpm and 5900 cpm and 6210 cpm
